According to paper PMC4258231:

Biological target: typhoid toxin B subunit PltB (Salmonella Typhi) (UniProt Q8Z6A3)
Assay: crystal structure

## typhoid toxin B subunit PltB (from UniProt Q8Z6A3 1-137) (natural protein)
  stoichiometry N: 5
